T1: rat TNFR2 (R&D systems, 8348-R2-050) (rat, UniProt Q80WY6 23-258)
T1 construct: Bought protein
T1 sequence (looked up): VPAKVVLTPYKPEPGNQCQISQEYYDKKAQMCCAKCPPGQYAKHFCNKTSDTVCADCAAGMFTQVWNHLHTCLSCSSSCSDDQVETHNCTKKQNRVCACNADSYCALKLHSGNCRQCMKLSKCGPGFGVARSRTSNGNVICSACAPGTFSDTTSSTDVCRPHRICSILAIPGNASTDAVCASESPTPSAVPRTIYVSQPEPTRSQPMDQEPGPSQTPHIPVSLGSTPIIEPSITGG

T2: Human TNFR1 (Acro Biosystem, TN1-H5222) (human, UniProt P19438 30-211)
T2 construct: Bought protein; also called TNF receptor type 1; CD120a
T2 sequence (looked up): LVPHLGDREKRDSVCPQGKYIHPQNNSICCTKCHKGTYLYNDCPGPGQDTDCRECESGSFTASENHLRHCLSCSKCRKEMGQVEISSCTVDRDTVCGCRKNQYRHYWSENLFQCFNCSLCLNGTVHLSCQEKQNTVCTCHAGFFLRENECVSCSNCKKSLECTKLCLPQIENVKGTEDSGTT

T3: mouse TNFR2 (R&D systems, 426-R2-050/CF) (mouse, UniProt P25119 23-258)
T3 construct: Bought protein
T3 sequence (looked up): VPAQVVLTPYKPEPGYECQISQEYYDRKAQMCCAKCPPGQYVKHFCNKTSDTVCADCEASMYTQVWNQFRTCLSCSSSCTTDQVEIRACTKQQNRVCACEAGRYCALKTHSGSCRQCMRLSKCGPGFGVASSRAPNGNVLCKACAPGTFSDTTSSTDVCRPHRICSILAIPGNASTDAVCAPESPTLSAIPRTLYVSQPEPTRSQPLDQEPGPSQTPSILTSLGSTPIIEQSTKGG


How the values were obtained:
[1] = target: T1, rat TNFR2 (R&D systems, 8348-R2-050); test: ELISA, receptor coated at 1 µg/ml
Method: Plates were incubated at 4° C. overnight. Antibodies was titrated from 100 μg/ml in a 5-fold dilution series, and distributed 100 μL, per well and incubated at 37° C. for 1 hour. Human IgG1 isotype control (BioxCell, BE0297) was used as negative control. TNFR2 Polyclonal Antibody (Invitrogen, PAS-80159) and HRP conjugated Goat anti-Rabbit IgG Fc Secondary Antibody (Invitrogen, A16116) were used as positive control for rat TNFR2 detection.

[2] = target: T2, Human TNFR1 (Acro Biosystem, TN1-H5222); test: ELISA, receptor coated at 1 µg/mL
Method: (§1) Human TNFR2 (Acro Biosystem, TN2-H5227), Human TNFR1 (Acro Biosystem, TN1-H5222), Cynomolgus TNFR2 (Sino Biological, 90102-CO8H) or mouse TNFR2 (R&D systems, 426-R2-050/CF) was coated on high binding polystyrene flat bottom micro-titer plates (Thermo Scientific, 3455) in PBS (PH=7.4, Gibco,10010-031) at 1 μg/mL and 100 μL per well. Plates were incubated at 4° C. overnight.
(§2) Plates were warmed up to room temperature the next day and washed with 200 μL PBS containing 0.1% Tween 20 (Life technologies, 003005) per well for 3 times. Plates were blocked with 200 μL PBS buffer containing 1% BSA (Fisher Scientific, BP1600-100) per well for 1 hour at 37° C. Antibodies was titrated from 5 μg/mL in a 5-fold dilution series, distributed 100 μL per well and incubated at 37° C. for 1 hour. Human IgG1 isotype control (BioxCell, BE0297) was used as negative control. Plates were washed with 200 μL PBS containing 0.1% Tween 20 (Life technologies, 003005) per well for 3 times. Goat anti-Human IgG Fc Secondary Antibody-HRP conjugate (Invitrogen, A18817) were distributed at 0.5μg/mL and 100 μL per well to detect bound antibodies. After 1-hour incubation of secondary antibody at 37° C., plates were washed with 200 μL PBS containing 0.1% Tween 20 (Life technologies, 003005) per well for 3 times. Plates were developed using TMB Substrate Solution (eBioscience, 00-4201-56) and stopped with ELISA stop solution (Invitrogen, SSO4). The level of bound antibodies was determined by reading absorbance at 450 nm. Mouse anti-human TNFR1 antibody (ThermoFisher Scientific, MA1-81005) and goat anti mouse IgG secondary antibody-HRP conjugate (Invitrogen, 62-5520) were used as positive control for human TNFR1 detection. Armenian Hamster anti-mouse TNFR2 antibody (InVivoMab, BE0247) and HRP-Goat anti-Armenian Hamster IgG (H+L) Secondary Antibody (Invitrogen, PA1-32045) were used as positive control for mouse TNFR2 detection.

[3] = target: T3, mouse TNFR2 (R&D systems, 426-R2-050/CF); test: ELISA, receptor coated at 1 µg/mL
Method: as §1, §2

Row | Binder | binding result [1] | binding result [2] | binding result [3]
1 | TN36-10 (antibody, V domains shown, Humanized; also called AL4/AL8) VH: EVQLVESGGGLIQPGGSLRLSCAASGFSLSSSAVSWVRQAPGKGLEWIGAIGSGGTSYYSNWAKSRFTISRDTSKNTVYLQMNSLRAEDTAVYFCARDPNSSDYPYGAYGMGLWGPGTLVTVSS VL: DIQMTQSPSSLSASVGDRVTITCQVSQSISSYLSWYQQKPGKAPKLLIYYASTLASGVPSRFSGSGSGTDFTLTISSLQPEDFATYYCQQGYITSNVGNAFGGGTKVEIK | no binding (tested: titrated from 100 µg/ml) | no binding (tested: titrated from 5 µg/mL) | no binding (tested: titrated from 5 µg/mL)
2 | TN36-14 (antibody, human IgG1, V domains shown, Humanized; also called AL5/AL8) VH: EVQLVESGGGLVQPGGSLRLSCAASGFSLSSSAVSWVRQAPGKGLEWIGAIGSGGTSYYSNWAKSRFTISRDNSKNTLYLQMNSLRAEDTAVYYCARDPNSSDYPYGAYGMGLWGQGTLVTVSS VL: DIQMTQSPSSLSASVGDRVTITCQVSQSISSYLSWYQQKPGKAPKLLIYYASTLASGVPSRFSGSGSGTDFTLTISSLQPEDFATYYCQQGYITSNVGNAFGGGTKVEIK | no binding (tested: titrated from 100 µg/ml) | no binding (tested: titrated from 5 µg/mL) | no binding (tested: titrated from 5 µg/mL)
3 | TN36-13 (antibody, human IgG1, V domains shown, Humanized; also called AL4/AL11) VH: EVQLVESGGGLIQPGGSLRLSCAASGFSLSSSAVSWVRQAPGKGLEWIGAIGSGGTSYYSNWAKSRFTISRDTSKNTVYLQMNSLRAEDTAVYFCARDPNSSDYPYGAYGMGLWGPGTLVTVSS VL: DIQLTQSPSFLSASVGDRVTITCQVSQSISSYLSWYQQKPGKAPKLLIYYASTLASGVPSRFSGSGSGTEFTLTISSLQPEDFATYYCQQGYITSNVGNAFGGGTKVEIK | no binding (tested: titrated from 100 µg/ml) | no binding (tested: titrated from 5 µg/mL) | no binding (tested: titrated from 5 µg/mL)
4 | TN36-11 (antibody, human IgG1, V domains shown, Humanized; also called AL4/AL9) VH: EVQLVESGGGLIQPGGSLRLSCAASGFSLSSSAVSWVRQAPGKGLEWIGAIGSGGTSYYSNWAKSRFTISRDTSKNTVYLQMNSLRAEDTAVYFCARDPNSSDYPYGAYGMGLWGPGTLVTVSS VL: DIQMTQSPSSLSASVGDRVTITCQVSQSISSYLSWYQQKPGKPPKLLIYYASTLASGVPSRFSGSGSGTDFTLTISSLQPEDFATYYCQQGYITSNVGNAFGGGTKVEIK | no binding (tested: titrated from 100 µg/ml) | no binding (tested: titrated from 5 µg/mL) | no binding (tested: titrated from 5 µg/mL)
5 | TN36-20 (antibody, human IgG1, V domains shown, Humanized; also called AL6/AL10) VH: EVQLVESGGGLVQPGGSLRLSCAASGFSLSSSAVSWVRQAPGKGLEWIGAIGSGGTSYYSNWAKSRFTISRDNSKNTLYLQMNSLRAEDTAVYYCARDPNSSDYPYGAYGMGLWGPGTLVTVSS VL: DIQMTQSPSFLSASVGDRVTITCQVSQSISSYLSWYQQKPGKAPKLLIYYASTLASGVPSRFSGSGSGTDFTLTISSLQPEDFATYYCQQGYITSNVGNAFGGGTKVEIK | no binding (tested: titrated from 100 µg/ml) | no binding (tested: titrated from 5 µg/mL) | no binding (tested: titrated from 5 µg/mL)
6 | TN36-12 (antibody, human IgG1, V domains shown, Humanized; also called AL4/AL10) VH: EVQLVESGGGLIQPGGSLRLSCAASGFSLSSSAVSWVRQAPGKGLEWIGAIGSGGTSYYSNWAKSRFTISRDTSKNTVYLQMNSLRAEDTAVYFCARDPNSSDYPYGAYGMGLWGPGTLVTVSS VL: DIQMTQSPSFLSASVGDRVTITCQVSQSISSYLSWYQQKPGKAPKLLIYYASTLASGVPSRFSGSGSGTDFTLTISSLQPEDFATYYCQQGYITSNVGNAFGGGTKVEIK | no binding (tested: titrated from 100 µg/ml) | no binding (tested: titrated from 5 µg/mL) | no binding (tested: titrated from 5 µg/mL)
7 | TN36-15 (antibody, human IgG1, V domains shown, Humanized; also called AL5/AL9) VH: EVQLVESGGGLVQPGGSLRLSCAASGFSLSSSAVSWVRQAPGKGLEWIGAIGSGGTSYYSNWAKSRFTISRDNSKNTLYLQMNSLRAEDTAVYYCARDPNSSDYPYGAYGMGLWGQGTLVTVSS VL: DIQMTQSPSSLSASVGDRVTITCQVSQSISSYLSWYQQKPGKPPKLLIYYASTLASGVPSRFSGSGSGTDFTLTISSLQPEDFATYYCQQGYITSNVGNAFGGGTKVEIK | no binding (tested: titrated from 100 µg/ml) | no binding (tested: titrated from 5 µg/mL) | no binding (tested: titrated from 5 µg/mL)
8 | TN36-19 (antibody, human IgG1, V domains shown, Humanized; also called AL6/AL9) VH: EVQLVESGGGLVQPGGSLRLSCAASGFSLSSSAVSWVRQAPGKGLEWIGAIGSGGTSYYSNWAKSRFTISRDNSKNTLYLQMNSLRAEDTAVYYCARDPNSSDYPYGAYGMGLWGPGTLVTVSS VL: DIQMTQSPSSLSASVGDRVTITCQVSQSISSYLSWYQQKPGKPPKLLIYYASTLASGVPSRFSGSGSGTDFTLTISSLQPEDFATYYCQQGYITSNVGNAFGGGTKVEIK | no binding (tested: titrated from 100 µg/ml) | no binding (tested: titrated from 5 µg/mL) | no binding (tested: titrated from 5 µg/mL)
9 | TN36-16 (antibody, human IgG1, V domains shown, Humanized; also called AL5/AL10) VH: EVQLVESGGGLVQPGGSLRLSCAASGFSLSSSAVSWVRQAPGKGLEWIGAIGSGGTSYYSNWAKSRFTISRDNSKNTLYLQMNSLRAEDTAVYYCARDPNSSDYPYGAYGMGLWGQGTLVTVSS VL: DIQMTQSPSFLSASVGDRVTITCQVSQSISSYLSWYQQKPGKAPKLLIYYASTLASGVPSRFSGSGSGTDFTLTISSLQPEDFATYYCQQGYITSNVGNAFGGGTKVEIK | no binding (tested: titrated from 100 µg/ml) | no binding (tested: titrated from 5 µg/mL) | no binding (tested: titrated from 5 µg/mL)
10 | TN36-17 (antibody, human IgG1, V domains shown, Humanized; also called AL5/AL11) VH: EVQLVESGGGLVQPGGSLRLSCAASGFSLSSSAVSWVRQAPGKGLEWIGAIGSGGTSYYSNWAKSRFTISRDNSKNTLYLQMNSLRAEDTAVYYCARDPNSSDYPYGAYGMGLWGQGTLVTVSS VL: DIQLTQSPSFLSASVGDRVTITCQVSQSISSYLSWYQQKPGKAPKLLIYYASTLASGVPSRFSGSGSGTEFTLTISSLQPEDFATYYCQQGYITSNVGNAFGGGTKVEIK | no binding (tested: titrated from 100 µg/ml) | no binding (tested: titrated from 5 µg/mL) | no binding (tested: titrated from 5 µg/mL)
11 | TN36-18 (antibody, human IgG1, V domains shown, Humanized; also called AL6/AL8) VH: EVQLVESGGGLVQPGGSLRLSCAASGFSLSSSAVSWVRQAPGKGLEWIGAIGSGGTSYYSNWAKSRFTISRDNSKNTLYLQMNSLRAEDTAVYYCARDPNSSDYPYGAYGMGLWGPGTLVTVSS VL: DIQMTQSPSSLSASVGDRVTITCQVSQSISSYLSWYQQKPGKAPKLLIYYASTLASGVPSRFSGSGSGTDFTLTISSLQPEDFATYYCQQGYITSNVGNAFGGGTKVEIK | no binding (tested: titrated from 100 µg/ml) | no binding (tested: titrated from 5 µg/mL) | no binding (tested: titrated from 5 µg/mL)

From patent publication US20240043551A1 (ADLAI NORTYE BIOPHARMA, published 2024)
